Data as given in patent US20180155451A1 (published 2018).

T1: FcγRIIa H (FcγRIIa type H, His at position 131), extracellular domain with C-terminal His tag (human, UniProt P12318 34-217)
T1 construct: extracellular domain; also called 2aH; FcgRIIa H; not shown: His tag at the C terminus
T1 sequence (looked up): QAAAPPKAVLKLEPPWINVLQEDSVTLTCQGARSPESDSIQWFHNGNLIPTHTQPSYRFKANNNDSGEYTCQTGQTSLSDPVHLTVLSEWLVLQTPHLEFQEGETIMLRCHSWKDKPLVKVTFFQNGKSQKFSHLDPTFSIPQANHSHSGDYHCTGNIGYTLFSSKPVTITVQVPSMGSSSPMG

T2: FcγRIIb, extracellular domain with C-terminal His tag (human, UniProt P31994 43-217)
T2 construct: extracellular domain; also called 2b; FcgRIIb; not shown: His tag at the C terminus
T2 sequence (looked up): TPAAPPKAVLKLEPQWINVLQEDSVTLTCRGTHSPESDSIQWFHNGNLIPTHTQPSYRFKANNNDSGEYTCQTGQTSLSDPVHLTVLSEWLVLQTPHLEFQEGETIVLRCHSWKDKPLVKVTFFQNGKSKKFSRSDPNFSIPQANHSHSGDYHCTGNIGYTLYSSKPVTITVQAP


Columns and labels:
[1] = molecular target: T1, FcγRIIa H (FcγRIIa type H, His at …); assay: ratio of He/Con_2aH (FcγRIIa H) to He/Con_2b (FcγRIIb), SPR relative binding
Experimental: (§1) The heterodimerized antibodies He Abs in which one of the H chains was introduced with an alteration were assayed for their binding activities to each activating FcγR and inhibitory FcγR according to the method described in Example 4. […] The activating FcγRs in FIGS. 26, 27, 28, and 29 are FcγRIa, FcγRIIa (R), FcγRIIa (H), and FcγRIIIa, respectively.
(§2) Analysis of interaction between objective antibody and the FcγR was carried out using Biacore T100 (GE Healthcare). HBS-EP+ (GE Healthcare) was used as the running buffer, and the measurement temperature was set to 25° C. Chips produced by immobilizing the antigen peptide by the amine coupling method to a Series S Sencor Chip CM5 (GE Healthcare), or alternatively, chips produced by allowing preliminarily biotinylated antigen peptides to interact with and immobilize onto a Series S Sensor Chip SA (certified) (GE Healthcare) were used. Antibodies of interest were captured onto an antigen peptide-immobilized chip, and allowed to interact to each FcγR diluted with running buffer. To regenerate and repeatedly use the chip, the antibodies captured on the chip were washed off by reacting 10 mM glycine-HCl, pH 1.5.

[2] = molecular target: T1, FcγRIIa H (FcγRIIa type H, His at …); assay: SPR (Biacore), antibody captured on antigen-peptide chip, FcγR as analyte; GpH7-A5/GpH7-B3/GpL16-k0 = 100
Experimental: as §1, §2

[3] = molecular target: T2, FcγRIIb, extracellular domain with …; assay: as above
Experimental: as §1, §2

| He_2aH/2b (IIaH/IIb ratio) [1] | He/Con_2aH (relative binding activity) [2] | He/Con_2b (relative binding activity) [3] | Binder |
| --- | --- | --- | --- |
| 0.71 | 36.7 % of control | 51.5 % of control | GpH7-A5/GpH7-B3 variant V266_01G/GpL16-k0 (antibody, human IgG1, kappa, Heterodimerized IgG1 (He Ab); mutation only in the GpH7-B3 chain; also called He Ab V266G) heavy 1: not shown heavy 2: not shown light: DIVMTQSPLSLPVTPGEPASISCQASESLVHSNRNTYLHWYLQKPGQSPQLLIYKVSNRFSGVPDRFSGSGSGTDFTLKISRVEAEDVGVYYCSQNTHVPPTFGQGTKVEIERTVAAPSVFIFPPSDEQLKSGTASVVCLLNNFYPREAKVQWKVDNALQSGNSQESVTEQDSKDSTYSLSSTLTLSKADYEKHKVYACEVTHQGLSSPVTKSFNRGEC |
| 0.63 | 6.4 % of control | 10.1 % of control | GpH7-A5/GpH7-B3 variant V266_09D/GpL16-k0 (antibody, human IgG1, kappa, Heterodimerized IgG1 (He Ab); mutation only in the GpH7-B3 chain; also called He Ab V266D) heavy 1: not shown heavy 2: not shown light: DIVMTQSPLSLPVTPGEPASISCQASESLVHSNRNTYLHWYLQKPGQSPQLLIYKVSNRFSGVPDRFSGSGSGTDFTLKISRVEAEDVGVYYCSQNTHVPPTFGQGTKVEIERTVAAPSVFIFPPSDEQLKSGTASVVCLLNNFYPREAKVQWKVDNALQSGNSQESVTEQDSKDSTYSLSSTLTLSKADYEKHKVYACEVTHQGLSSPVTKSFNRGEC |
| -1.05 | 1.1 % of control | -1.1 % of control | GpH7-A5/GpH7-B3 variant V266_12R/GpL16-k0 (antibody, human IgG1, kappa, Heterodimerized IgG1 (He Ab); mutation only in the GpH7-B3 chain; also called He Ab V266R) heavy 1: not shown heavy 2: not shown light: DIVMTQSPLSLPVTPGEPASISCQASESLVHSNRNTYLHWYLQKPGQSPQLLIYKVSNRFSGVPDRFSGSGSGTDFTLKISRVEAEDVGVYYCSQNTHVPPTFGQGTKVEIERTVAAPSVFIFPPSDEQLKSGTASVVCLLNNFYPREAKVQWKVDNALQSGNSQESVTEQDSKDSTYSLSSTLTLSKADYEKHKVYACEVTHQGLSSPVTKSFNRGEC |
| 0.69 | 106 % of control | 152 % of control | GpH7-A5/GpH7-B3 variant V266_07I/GpL16-k0 (antibody, human IgG1, kappa, Heterodimerized IgG1 (He Ab); mutation only in the GpH7-B3 chain; also called He Ab V266I) heavy 1: not shown heavy 2: not shown light: DIVMTQSPLSLPVTPGEPASISCQASESLVHSNRNTYLHWYLQKPGQSPQLLIYKVSNRFSGVPDRFSGSGSGTDFTLKISRVEAEDVGVYYCSQNTHVPPTFGQGTKVEIERTVAAPSVFIFPPSDEQLKSGTASVVCLLNNFYPREAKVQWKVDNALQSGNSQESVTEQDSKDSTYSLSSTLTLSKADYEKHKVYACEVTHQGLSSPVTKSFNRGEC |
| 0.33 | 33.3 % of control | 102 % of control | GpH7-A5/GpH7-B3 variant S239_05P/GpL16-k0 (antibody, human IgG1, kappa, Heterodimerized IgG1 (He Ab); mutation only in the GpH7-B3 chain; also called He Ab S239P) heavy 1: not shown heavy 2: not shown light: DIVMTQSPLSLPVTPGEPASISCQASESLVHSNRNTYLHWYLQKPGQSPQLLIYKVSNRFSGVPDRFSGSGSGTDFTLKISRVEAEDVGVYYCSQNTHVPPTFGQGTKVEIERTVAAPSVFIFPPSDEQLKSGTASVVCLLNNFYPREAKVQWKVDNALQSGNSQESVTEQDSKDSTYSLSSTLTLSKADYEKHKVYACEVTHQGLSSPVTKSFNRGEC |
| 0.79 | 94.2 % of control | 119 % of control | GpH7-A5/GpH7-B3 variant S239_18N/GpL16-k0 (antibody, human IgG1, kappa, Heterodimerized IgG1 (He Ab); mutation only in the GpH7-B3 chain; also called He Ab S239N) heavy 1: not shown heavy 2: not shown light: DIVMTQSPLSLPVTPGEPASISCQASESLVHSNRNTYLHWYLQKPGQSPQLLIYKVSNRFSGVPDRFSGSGSGTDFTLKISRVEAEDVGVYYCSQNTHVPPTFGQGTKVEIERTVAAPSVFIFPPSDEQLKSGTASVVCLLNNFYPREAKVQWKVDNALQSGNSQESVTEQDSKDSTYSLSSTLTLSKADYEKHKVYACEVTHQGLSSPVTKSFNRGEC |
| 0.33 | 83.9 % of control | 251 % of control | GpH7-A5/GpH7-B3 variant V266_06M/GpL16-k0 (antibody, human IgG1, kappa, Heterodimerized IgG1 (He Ab); mutation only in the GpH7-B3 chain; also called He Ab V266M) heavy 1: not shown heavy 2: not shown light: DIVMTQSPLSLPVTPGEPASISCQASESLVHSNRNTYLHWYLQKPGQSPQLLIYKVSNRFSGVPDRFSGSGSGTDFTLKISRVEAEDVGVYYCSQNTHVPPTFGQGTKVEIERTVAAPSVFIFPPSDEQLKSGTASVVCLLNNFYPREAKVQWKVDNALQSGNSQESVTEQDSKDSTYSLSSTLTLSKADYEKHKVYACEVTHQGLSSPVTKSFNRGEC |
| 0.44 | 25.3 % of control | 57.6 % of control | GpH7-A5/GpH7-B3 variant V266_04F/GpL16-k0 (antibody, human IgG1, kappa, Heterodimerized IgG1 (He Ab); mutation only in the GpH7-B3 chain; also called He Ab V266F) heavy 1: not shown heavy 2: not shown light: DIVMTQSPLSLPVTPGEPASISCQASESLVHSNRNTYLHWYLQKPGQSPQLLIYKVSNRFSGVPDRFSGSGSGTDFTLKISRVEAEDVGVYYCSQNTHVPPTFGQGTKVEIERTVAAPSVFIFPPSDEQLKSGTASVVCLLNNFYPREAKVQWKVDNALQSGNSQESVTEQDSKDSTYSLSSTLTLSKADYEKHKVYACEVTHQGLSSPVTKSFNRGEC |
| 0.5 | 27 % of control | 54.4 % of control | GpH7-A5/GpH7-B3 variant V266_13S/GpL16-k0 (antibody, human IgG1, kappa, Heterodimerized IgG1 (He Ab); mutation only in the GpH7-B3 chain; also called He Ab V266S) heavy 1: not shown heavy 2: not shown light: DIVMTQSPLSLPVTPGEPASISCQASESLVHSNRNTYLHWYLQKPGQSPQLLIYKVSNRFSGVPDRFSGSGSGTDFTLKISRVEAEDVGVYYCSQNTHVPPTFGQGTKVEIERTVAAPSVFIFPPSDEQLKSGTASVVCLLNNFYPREAKVQWKVDNALQSGNSQESVTEQDSKDSTYSLSSTLTLSKADYEKHKVYACEVTHQGLSSPVTKSFNRGEC |
| 0.66 | 10.1 % of control | 15.2 % of control | GpH7-A5/GpH7-B3 variant V266_10E/GpL16-k0 (antibody, human IgG1, kappa, Heterodimerized IgG1 (He Ab); mutation only in the GpH7-B3 chain; also called He Ab V266E) heavy 1: not shown heavy 2: not shown light: DIVMTQSPLSLPVTPGEPASISCQASESLVHSNRNTYLHWYLQKPGQSPQLLIYKVSNRFSGVPDRFSGSGSGTDFTLKISRVEAEDVGVYYCSQNTHVPPTFGQGTKVEIERTVAAPSVFIFPPSDEQLKSGTASVVCLLNNFYPREAKVQWKVDNALQSGNSQESVTEQDSKDSTYSLSSTLTLSKADYEKHKVYACEVTHQGLSSPVTKSFNRGEC |
| 0.44 | 104 % of control | 236 % of control | GpH7-A5/GpH7-B3 variant V266_08L/GpL16-k0 (antibody, human IgG1, kappa, Heterodimerized IgG1 (He Ab); mutation only in the GpH7-B3 chain; also called He Ab V266L) heavy 1: not shown heavy 2: not shown light: DIVMTQSPLSLPVTPGEPASISCQASESLVHSNRNTYLHWYLQKPGQSPQLLIYKVSNRFSGVPDRFSGSGSGTDFTLKISRVEAEDVGVYYCSQNTHVPPTFGQGTKVEIERTVAAPSVFIFPPSDEQLKSGTASVVCLLNNFYPREAKVQWKVDNALQSGNSQESVTEQDSKDSTYSLSSTLTLSKADYEKHKVYACEVTHQGLSSPVTKSFNRGEC |
| 0.75 | 105 % of control | 140 % of control | GpH7-A5/GpH7-B3 variant S239_08L/GpL16-k0 (antibody, human IgG1, kappa, Heterodimerized IgG1 (He Ab); mutation only in the GpH7-B3 chain; also called He Ab S239L) heavy 1: not shown heavy 2: not shown light: DIVMTQSPLSLPVTPGEPASISCQASESLVHSNRNTYLHWYLQKPGQSPQLLIYKVSNRFSGVPDRFSGSGSGTDFTLKISRVEAEDVGVYYCSQNTHVPPTFGQGTKVEIERTVAAPSVFIFPPSDEQLKSGTASVVCLLNNFYPREAKVQWKVDNALQSGNSQESVTEQDSKDSTYSLSSTLTLSKADYEKHKVYACEVTHQGLSSPVTKSFNRGEC |
| 0.78 | 35.2 % of control | 45.1 % of control | GpH7-A5/GpH7-B3 variant S239_20W/GpL16-k0 (antibody, human IgG1, kappa, Heterodimerized IgG1 (He Ab); mutation only in the GpH7-B3 chain; also called He Ab S239W) heavy 1: not shown heavy 2: not shown light: DIVMTQSPLSLPVTPGEPASISCQASESLVHSNRNTYLHWYLQKPGQSPQLLIYKVSNRFSGVPDRFSGSGSGTDFTLKISRVEAEDVGVYYCSQNTHVPPTFGQGTKVEIERTVAAPSVFIFPPSDEQLKSGTASVVCLLNNFYPREAKVQWKVDNALQSGNSQESVTEQDSKDSTYSLSSTLTLSKADYEKHKVYACEVTHQGLSSPVTKSFNRGEC |
| 0.56 | 114 % of control | 206 % of control | GpH7-A5/GpH7-B3 variant S239_09D/GpL16-k0 (antibody, human IgG1, kappa, Heterodimerized IgG1 (He Ab); mutation only in the GpH7-B3 chain; also called He Ab S239D) heavy 1: not shown heavy 2: not shown light: DIVMTQSPLSLPVTPGEPASISCQASESLVHSNRNTYLHWYLQKPGQSPQLLIYKVSNRFSGVPDRFSGSGSGTDFTLKISRVEAEDVGVYYCSQNTHVPPTFGQGTKVEIERTVAAPSVFIFPPSDEQLKSGTASVVCLLNNFYPREAKVQWKVDNALQSGNSQESVTEQDSKDSTYSLSSTLTLSKADYEKHKVYACEVTHQGLSSPVTKSFNRGEC |
| 0.62 | 112 % of control | 181 % of control | GpH7-A5/GpH7-B3 variant S239_10E/GpL16-k0 (antibody, human IgG1, kappa, Heterodimerized IgG1 (He Ab); mutation only in the GpH7-B3 chain; also called He Ab S239E) heavy 1: not shown heavy 2: not shown light: DIVMTQSPLSLPVTPGEPASISCQASESLVHSNRNTYLHWYLQKPGQSPQLLIYKVSNRFSGVPDRFSGSGSGTDFTLKISRVEAEDVGVYYCSQNTHVPPTFGQGTKVEIERTVAAPSVFIFPPSDEQLKSGTASVVCLLNNFYPREAKVQWKVDNALQSGNSQESVTEQDSKDSTYSLSSTLTLSKADYEKHKVYACEVTHQGLSSPVTKSFNRGEC |
